Six sequences from the DeepSol protein solubility set can be followed below.

A short description of this data set: soluble on expression in E. coli; label from the status in PepcDB or PDB records.
As to “MKNVGDVGDLCTGCGTCAAMCPLESVVMRIDHDRGVYEPLVDGECDGCGVCLRVCPGVGVDFTDLNMRVFGREPDDMLMGNYEECYIAHSRDDELRYGASSGGMISQILIYLLEEGLIDGALVTRMNPERPLEPEPFIARTPSEIIESRGSKYCPVPANVALKEILEVPGRYAVVGLPCHIHGVRKAEVISRKLRERIVYHLGIVCNHAPSFRATEFLLERLGVDPGDVKSIRYRGEGWPGSLRVETESGDLLLLPEYWGSGFGQLFMPERCRLCADHMAELSDISFADPWLKELKDEKKGRTLVIIRKWPEKFAGILKGGICEMDKIKPEKALLSQIYNIYMKKKLCRRSMYNGSFPEIDFIDRIILSFEPSRLKIPWTIKRRYIFFYSMIVALKARMDFLGDSKLEHHHHHH”, the “soluble on expression in E. coli” value is “soluble”.
Turning to “MKQLTVEDAKQIELEILDYIDTLCKKHNINYIINYGTLIGAVRHEGFIPWDDDIDLSMPREDYQRFINIFQKEKSKYKLLSLETDKNYFNNFIKITDSTTKIIDTRNTKTYESGIFIDIFPIDRFDDPKVIDTCYKLESFKLLSFSKHKNIVYKDSLLKDWIRTAFWLLLRPVSPRYFANKIEKEIQKYSRENGQYMAFIPSKFKEKEVFPSGTFDKTIDLPFENLSLPAPEKFDTILTQFYGDYMTLPPEEKRFYSHEFHAYKLEDLEHHHHHH”, the “soluble on expression in E. coli” value is on record as “soluble”.
For the sequence “MSLSITSDLIATANSGIWTDSEMLECCAVVPEAPDTVTISFVSPSGNLFKYEPGQFLTLELPVPGGPLYRTYTISSSPSRPLSLSITVKAQPGSIGTRWMLEKLMPGMRVKAIGPAGQFTLDTTARKKKYLFISAGSGVTPTLAMTTYLYDRGTDIDVSIINCARRPGEIIGRRSLAAMASRVPSIKLTFIVEEDDPFQVWTGLRGRLNQIMIGIVAGDYLERDIYCCGPEPFMDAVREMLIGLGYDMSRYSQESFSAPAETAEDVPDLDDVTPDESVAAQITFVSSKVTAGCTETDTVLAVARGAGLNIPSGCTFGVCGTCKIRKTKGEVHMVHNGGISEDDIADGYILACCSKPVGQVEVDIEGHHHHHH”, the “soluble on expression in E. coli” value is on record as “soluble”.
For “DYKDDDDKDLKCTTNNMRVWDCTWPAPLGVSPGTVKDICIKDRFHSCHPLETTNVKIPALSPGDHEVTINYLNGFQSKFTLNEKDVSLIPETPEILDLSADFFTSSLLLKWNDRGSALPHPSNATWEIKVLQNPRTEPVALVLLNTMLSGKDTVQHWNWTSDLPLQCATHSVSIRWHIDSPHFSGYKEWSDWSPLKNISWIRNTETNVFPQDKVVLAGSNMTICCMSPTKVLSGQIGNTLRPLIHLYGQTVAIHILNIPVSENSGTNIIFITDDDVYGTVVFAGYPPDVPQKLSCETHDLKEIICSWNPGRITGLVGPRNTEYTLFESISGKSAVFHRIEGLTNETYRLGVQMHPGQEIHNFTLTGRNPLGQAQSAVVINVTERVAPHDPTSLKVKDINSTVVTFSWYLPGNFTKINLLCQIEICKANSKKEVRNATIRGAEDSTYHVAVDKLNPYTAYTFRVRCSSKTFWKWSRWSDEKRHLTTEAT” the value was “soluble”; for “MEQNGFHTLSLFLNPKVLRPLLTQAVTQLPKYFLGQSSTPPSTSFEGRYKPSFLERAAFSTNPFDNTGSDTQQKLSPTELIRGSYGEGREAGKKTPAELIMSTDDLKRQMPSLPDALKDTIRIQEVPKQEKSDFSEQGGVASMIPQSPFVSNIDKVSGDEAGRQQKDVMDYITEFNNRSMPEEQRGSSPVNEETLSHTPISEEEHLKANDMPEQATDYVNAVGNFIHKDANPSNLWERFRKSEFSEHLMDFFAGLASGKTPQESFSNAALVMRQGNNTRLQNRPIFAFLRSKGYDDKDAQAIMQYPDLAMKVIGSTLSPQEDYRTLTAEEKAKQGLPEDMAFQISTSTGKIIPVQGGQRSTASGLGGNTDSMLSKPESGYMLVKDKNAPHGIRAMPIAGSGAEHKLIQEQKEEERKEQQAKMQILESADRSNRIISTSKELLKIVDEHPHVAGFLGYWGSFIPGFKAKDFGHMLDSLKASIGLDALTKAKAFSPNGASGFGNLSNMELQALQNSVAALYQDLTAEQLKKSLTTIIDTFNKSNAATRAILFGGAEATRELVRAAYGEDAYKKNNTQSDVSLEKQIEALPEGILFIDSDGRIKEKQTNG”, “not soluble”.
With “MRYRDFDIFKFWFRAVEKFAPWVHKIYLITDNQVPDWLDTRNSKLTVIDHRDIMDADWLPTFNSNAIELNAYKIKNLSEKFVLFNDDTILNSYVDKVDFFDENYPKDIYVESPIMATKGSVDHIMVNNVEIINEFFEKKNFYKKNLTKVFNPKIGIKLLRTLALLPSSKFAGFWNSHLPISYNKTTFETVWSNCEGKLVATSKNKFRTAYDVSHWLMRYWQLASGNYHLQNNIGKVYDLSSQNIDEVVTQLQRSHSKIICLNDNDELDDYEGVKGKLVTTLNEKFSEKSKFELLEHHHHHH”, the “soluble on expression in E. coli” value is reported as “not soluble”.
